The target in this data set is JMJD6 full-length;BRD4 ET domain (human?;human, UniProt Q6NYC1;O60885 1-403;601-683, |). The experiment in a line: thermal shift (DSF); with BRD4 ET; Tm […] C (+[…] C vs JMJD6/ssRNA); DSF: PBS pH 7.4, 1 uM JMJD6, 1 uM oligonucleotide, ET 1-100 uM, SYPRO Orange, 25-95 C at 1 C/min.

Turning to AUACGAUGCUUUACGGUGCUAUUUUGU (ssRNA) [ssRNA 27-nt], the binding result was “binds”.
